{"source": "the nanobody polyreactivity screen of Harvey et al. (2022)", "data": [{"assay": "yeast display, Sf9 membrane polyspecificity reagent, FACS + sequencing; frameworks hold sequencing errors", "in_short": "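Genes from sorted yeast were amplified by colony PCR, read by MiSeq 2 × 250 sequencing and filtered on CDR length. These cells carried a synthetic nanobody library in Saccharomyces cerevisiae BJ5465 and were sorted by FACS into low and high (top ~1%) gates on anti-HA and streptavidin fluorescence. Polyreactivity is labelled according to the gate of origin.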", "values": [{"sequence": "QGQLVESVGGLVQAGVSLRLSCAASGRIFPSYAMGCYRPAPGKERELVAAISSSGGRTYYADSVKGRFTISRDNAKNTVYLQMNSLKPEDTAVYYCAARWVHYGVRYDYWGPGTQVTVSS", "polyreactivity (PSR sort gate)": "high polyreactivity"}, {"sequence": "QGQRVESGGGLVQAGCSLRLSSAASGSTFNEYTLGWYRQAPGKERELVAAIRASDGSTFYADTVKGRFTISRDYAKNSVYFQMNSLKPEDTSVYYCPADYYWNDYWGQGTQVTVSS", "polyreactivity (PSR sort gate)": "low polyreactivity"}, {"sequence": "QGQVVESGGGLVQAGGSLRLSCAASGSTFYGYAMGWYREAAGKERELVAAISRDGSTNYADSVKGRFTISRDNAKNTVYLQMNSLKPEDTAVYYCATRTKKRAPYKFYSWGQGTQVTVSS", "polyreactivity (PSR sort gate)": "high polyreactivity"}, {"sequence": "QHQLVESGGGLVQAGGSLRLSCAASGRTSLDYAMGWYRQAPGKERELVSAIRSGGITNYADSVKGRFTISRDNAKNTVYLQLNSLKPEDTAVYYCAARVHRAYSTGSIVYYWGQGTQVNVSS", "polyreactivity (PSR sort gate)": "high polyreactivity"}, {"sequence": "QIKLEESGGGLVQAGGSLRISCAASGSTYWDKVMGWYRQAPGKEMELVAAIDSGGSTYYADSVKGRFTISRDNAKNTVYLLMNSLKPEDTEVYYCNSRVDTPSPYDYWGQGTQVTVSS", "polyreactivity (PSR sort gate)": "low polyreactivity"}, {"sequence": "QIQLEESGGGLVQAGGSLRLSCAASGSIFSVYAMGWYRQAPGKERELVATISTGGSTYYADSVKGRFTISRDNAKNTVYLQMNSLKPEDTAVYYCNAQFTPRYWGGYDSWGQGTQVTVSS", "polyreactivity (PSR sort gate)": "low polyreactivity"}, {"sequence": "QIQLEESVGGLVQAGGTLRLSCASSGFTFYINVMGWDRQAPGKERELVAAISGTGGTNYADSVKGRFTISRDNAKNTVYLQMNSLKPEDTAVYYCARDYYVYSTGHVPLDYWGQGTQVTVSS", "polyreactivity (PSR sort gate)": "low polyreactivity"}, {"sequence": "QIQLVESGGGLVQAGGSLRLSCAASGGIFYINAMGWYRQAPGKERELVAAITESSDITYYADSVKGRFTISRDNAKNSVYLQINSLKPEDTAVYYCAAEFVRSGDDYWGQGTQVTVSS", "polyreactivity (PSR sort gate)": "low polyreactivity"}, {"sequence": "QIQLVESGGWLVQAGGSLRLRCAASGNTIHWNVMVWYRQPPGKERELVATITFSGSSTYYADSVKGRFTISRDNAKNTVYLQMNSLQPEDTAVYFCNATRYRLRPSGVRYKYNYWGQGTQGTVSS", "polyreactivity (PSR sort gate)": "low polyreactivity"}, {"sequence": "QLHLQESGGLVQAGGLRLSCAASGSVSYQEAMGWYRQAPGKERELVATISFGANTNYADSVKGRFTISRDNAKNTVYLQMNSLKPEDTAVYYCAAESLFDDYYGYWGQGTQVTVSS", "polyreactivity (PSR sort gate)": "low polyreactivity"}, {"sequence": "QLHLQVSGGGLVQAGGSLRLSCAASGSIFLTSEKGWYRQAPGKERELVAAIATGTSTNYADSVKGRFTISRDNAKNTVYLQLNSLKPEDTAVYYCATYDYWGQGTKVTVSS", "polyreactivity (PSR sort gate)": "low polyreactivity"}, {"sequence": "QLKLVESGGGLVQAGGSLRLSCAASGSIFDVNAMGWYREAPGKEMELVAAISDSGGSTYYADSVKGRFTISRDNAKNTVYLQMNSLKPEDTAVYYCNADWSWYHYYDCDYWGQGTQVTVSS", "polyreactivity (PSR sort gate)": "low polyreactivity"}, {"sequence": "QLQHVESGGGLVQAGGSLRLSCAASGGIFGIYAMGWYRQAPGKESELVAAISRRGGSTYFADSVKGRFTISRDNAKNTVYLQMKSLKPADTAVYYCAAVRRGVNTSFGYRPLNYWGQGTEVTVSS", "polyreactivity (PSR sort gate)": "high polyreactivity"}, {"sequence": "QLQHVESGGGLVQAGGSLRLSCAASGSTFYRNAMGWYRQAPGKDRELVAAISRGSRTYYADSVKGRFTISRDNAKNTVYLQMNSLKPEDTAVYYCAALYGSRSTYHMDDYWGQGTQVTVSS", "polyreactivity (PSR sort gate)": "high polyreactivity"}, {"sequence": "QLQHVETGGGLVQAGGSLRLSCAASGRIFIRNHMGWYRQAPGKERELVAVITRSGGRTYYADSVKGRFTISRDNANNTVYLQMNRVKPEDTAVYYCAKRQAFKQATYDYWGQGTQVTVSS", "polyreactivity (PSR sort gate)": "low polyreactivity"}, {"sequence": "QLQLEESGGGLVQAGGSLRLSCAASRRIIVGYAKGRYRQAPGKEREFVAAITFRGGTTYYADSVKGRLTISRDNAKNTVYLQMNSLNQEDSAVYYCAVPHYLYSVEFGYWGQGTQVTVSS", "polyreactivity (PSR sort gate)": "low polyreactivity"}, {"sequence": "QLQLGESGGGLVQAGGSLRLSCAGSGSIFNYYAMGWYRQATGKERELVAAITSGGSTYYADSVKGRFTISRDNAKNTVYLQMNSLKPEDTAVYYCNKAFPYIYEYWGQGTQVTVSS", "polyreactivity (PSR sort gate)": "low polyreactivity"}, {"sequence": "QLQLQEGGGGLLQAGGSLRLSCAASGYISYGDVMGWYRQAPGEERELVASIGLDATTNYADSVKGRFTISRDNSKNTVYLQMNSLKPEDTAVYYCPADRGAPFSLHYWGQGTQVTVSS", "polyreactivity (PSR sort gate)": "high polyreactivity"}, {"sequence": "QLQLQESSGGLVQAGGSMRMTCAASGTIFHFHIMGWYRPAPGKEREFVAAISYGTSTYYADSVKGRFTISRDNAKNTVYLQMNSQKPEDTAVYYCAVYDYLEVYCWYWGQGTQVTVSS", "polyreactivity (PSR sort gate)": "low polyreactivity"}, {"sequence": "QLQLVDSGGGLVQAGGRLSLSCAASGSIFYRYAMGWYIQAPGKERELVAAITSGGRTYYADSVKGRFTISRDNAKNTVYLQMNSLNPEDTAVYFCNAVYRKTSYGYWGQGTQVTVSS", "polyreactivity (PSR sort gate)": "high polyreactivity"}, {"sequence": "QLQLVDSGGGLVQAGGSLRLSCAASGRTFRIYAMGWYRKAPGKERELVASITGGGTTNYADSVKGRFTISRDNAKYTVYLQMNSLKPEDTAVYYCAARSRTRPNVPGYGYWGQGTQVTVSS", "polyreactivity (PSR sort gate)": "high polyreactivity"}, {"sequence": "QLQLVESCGGLFQAGGSLRLSCADSGSTFGDHAMGCYRQAPGKERELVAVITSDTSTYYADSLKWRLTISRDNAKNTVYLQMNSMKPEDTAVYYCAADWGGLWFWYEYWGQGTQVTVSS", "polyreactivity (PSR sort gate)": "low polyreactivity"}, {"sequence": "QLQLVESCGVLVQAGGSLRLSCAASGRTHGNNAMGCYRQAPGKERELVAITYRGGSTYYADSVKGRFTISRDNAKNTVYLQMNSLKPEDTAVYYCNVDIISKVDTNKYEYWGQGTQVTVSS", "polyreactivity (PSR sort gate)": "low polyreactivity"}, {"sequence": "QLQLVESGGGLGQAGGRLRLSCAASGSTFGRYAKGCYIQAPGKERELVAAITSDTGNTNFADSVKGRLTISRDNAKNTVYLQMNSLKPEDTAVYYCAAATFWVLWGDVIGNYDSWGQGTQVTVSS", "polyreactivity (PSR sort gate)": "low polyreactivity"}, {"sequence": "QLQLVESGGGLVQAGGRLRLSCAASGLNFYDNMGWYRQPPGKEREFVAAISSSGGSTSYADSVKGRFTISRDNAKNTVYLQMNSLKPEDRAVYYCAADSYPAYLGFVGFDYWGQGTQVTVSS", "polyreactivity (PSR sort gate)": "low polyreactivity"}, {"sequence": "QLQLVESGGGLVQAGGRLRLSCAASGRTLGKYAMGWYRQAPGKEREFVAAISSSGSRTFYADSVKGRFTISRDNAKYTVSLQMNSLKPEDTAVYYCAADYYSRGYGYWGQGTQVTVSS", "polyreactivity (PSR sort gate)": "high polyreactivity"}, {"sequence": "QLQLVESGGGLVQAGGSLPLTCAASGRTFARNAMGWYRQAPGKERELVARISRRAGSTYYADSVKGRFTISRDNAKNTVYLQMNSLKPAETAVYYCNAGPPYSYARDYWGQGTQVTVSS", "polyreactivity (PSR sort gate)": "high polyreactivity"}, {"sequence": "QLQLVESGGGLVQAGGSLRLSCAANGSTFWIYAMGWYRQAPGKERELVAAITLRSGSTYYADSVKGRFTMSRDNAKNTVYLQMNSLKPEDTAVYYCATDSWGVDRPNYNYWGQGTQVTVSS", "polyreactivity (PSR sort gate)": "low polyreactivity"}, {"sequence": "QLQLVESGGGLVQAGGSLRLSCAASGFIFSTYAMGWYRQAPGKERELVAAISRSGGSTYYADSVKGRFTISRDNAKNTVYLQMNSLKPEDTAVYYCNLSQAAFRTGYDYWGQGTQVTVSS", "polyreactivity (PSR sort gate)": "high polyreactivity"}, {"sequence": "QLQLVESGGGLVQAGGSLRLSCAASGFTFGVYAKGWYRQAPGKEREFVAAISWRGGSTYYADSVKGRFTISRDNAKITVYLQMNSLKPEDTAVYYCAADVLERGYGHYNYWGQGTQVTVSS", "polyreactivity (PSR sort gate)": "high polyreactivity"}, {"sequence": "QLQLVESGGGLVQAGGSLRLSCAASGGIFGYYTMGSYRQAPGKEREFVAAITSRGGSTYYADSVKGRFTISRDTAKNTVYLQMNSLKPEDTAVYYCAARRQRDRYGYWGQGTQVTVSS", "polyreactivity (PSR sort gate)": "high polyreactivity"}, {"sequence": "QLQLVESGGGLVQAGGSLRLSCAASGHIFDANVMGWSRQAPGKERELVAAISSGGRTKYADSVKGRFTISRDNAKNTVYLQMNSLKPEDTAVYYCAKKHFPLYDYWGQGTQVTVSS", "polyreactivity (PSR sort gate)": "low polyreactivity"}, {"sequence": "QLQLVESGGGLVQAGGSLRLSCAASGLIFRYYTMGWYRQAPGKERELVATITRGDSTYYADSVKGRFTISRDNAKNTVYLQMNSLKPEDTAVYFCAAAGWSRVGYWLKYDYWGQGTQVTVSS", "polyreactivity (PSR sort gate)": "high polyreactivity"}, {"sequence": "QLQLVESGGGLVQAGGSLRLSCAASGLIFTTNAMGWYRQAPGKEREFVAAISPSGGSTYYADSVKGRFTISRDNAKNTVYLQMKSLKPEDTAVYYCAKRPYVGYDWGQGTQVTVSS", "polyreactivity (PSR sort gate)": "high polyreactivity"}, {"sequence": "QLQLVESGGGLVQAGGSLRLSCAASGLTFYSYPMGWYRQARGKERELVATIRSSGGSSYYADSVKGRFTISRDNAKNTVYLQMNSLKPEDTAVYYCAARWGPYAFTYVRTYDYWGHGTQVTVSS", "polyreactivity (PSR sort gate)": "low polyreactivity"}, {"sequence": "QLQLVESGGGLVQAGGSLRLSCAASGNTFYGYTMGWYRQAPGTERELVAVISSSGGRTNYADSVKGRFTISRDNAKNTVYLQMNSLKPEDTAVYYCAARSSRLPHIYGYWGQGTQVTVSS", "polyreactivity (PSR sort gate)": "low polyreactivity"}, {"sequence": "QLQLVESGGGLVQAGGSLRLSCAASGRIFGKNDMRSYRQAPGKERELVAAITTSGGSTDYADSVKGRFTISRDKAKNTVYLQMNSLKPEDTAVYYCNAAFQNKAYIRKYKYDYWGQGTQVTVSS", "polyreactivity (PSR sort gate)": "low polyreactivity"}, {"sequence": "QLQLVESGGGLVQAGGSLRLSCAASGRIFYQTAMGWYRQAPGKERELVADIASGGSTYYADSVKGRFSISRDNAKNTVHLQMNSLKREDTAVDYCATAVLYGDGWYYYWGQGTQVTVSS", "polyreactivity (PSR sort gate)": "low polyreactivity"}, {"sequence": "QLQLVESGGGLVQAGGSLRLSCAASGRILRYYTMGWYRQAPGKERELVAAISRSGGGTYYADSVKGRFTISRDNANNTVDIEMYSLIPEDTSVYYCAAYKPSPYSSDYDYWGEGTQVTVSS", "polyreactivity (PSR sort gate)": "high polyreactivity"}, {"sequence": "QLQLVESGGGLVQAGGSLRLSCAASGRTFAIYAMGWYRQAPGKERELVAAIRKRGSITYYADSVKGRFTISRDNAKNTVYLQMNSLKPDATAVYYCAVDYWGQGTQVTVSS", "polyreactivity (PSR sort gate)": "high polyreactivity"}, {"sequence": "QLQLVESGGGLVQAGGSLRLSCAASGRTFDDYAMGWYRQAPGKERELVAAISGSAGSTYYADSVKGRFTISRDNAKNTVYLQMNSLKPEDTAVYYCARGYGTYPLYYQYLAYYYWGQGTQVTVSS", "polyreactivity (PSR sort gate)": "low polyreactivity"}, {"sequence": "QLQLVESGGGLVQAGGSLRLSCAASGRTFQGYAMGWYRQAPGKERELVAAISRSGGRTYYADSVKGRFTISRDNAKYTVYLQMNSLKPEDTAVYYCCTEAFRDYGYWGQGTQVTVSS", "polyreactivity (PSR sort gate)": "high polyreactivity"}, {"sequence": "QLQLVESGGGLVQAGGSLRLSCAASGRTFRLNGMGWYRQAPGKERELVAAITWSGGRTYYADSVKGRFTISRDNAKNTVYLQMNSLNPEDTAVYYCAAGKSSYGKPKYYYWGQGTQVTVSS", "polyreactivity (PSR sort gate)": "high polyreactivity"}]}]}
